Measured values taken from paper PMC12596378, “Nonstructural Protein 1 Mediates HMGB1 Release by Targeting Histone H1.0 After Respiratory Syncytial Virus Infection In Vivo and In Vitro” (Inflammation, 2025).

Molecular target: T1, His-H1.0 fusion protein (histone H1.0) (UniProt P07305 2-194)
T1 construct: histone H1.0; Used in the pull-down and as analyte in SPR; source: E. coli BL21, purified (Ni-NTA Sepharose)
Test: SPR; BIAcore T200; His-NS1 amine-coupled on a CM5 chip (600 RU); H1.0 at 0-500 nM in PBS flowed over, 30 uL/min, dissociation 360 s
Conditions: both partners purified

T1 sequence (P07305 2-194): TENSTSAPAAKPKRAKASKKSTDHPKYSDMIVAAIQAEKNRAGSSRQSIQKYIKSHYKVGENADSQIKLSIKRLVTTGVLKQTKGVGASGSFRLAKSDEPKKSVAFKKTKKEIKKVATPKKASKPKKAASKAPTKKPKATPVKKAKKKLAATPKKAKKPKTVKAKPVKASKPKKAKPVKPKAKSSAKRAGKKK

B1: His-NS1 fusion protein (respiratory syncytial virus nonstructural protein 1) (natural protein)
chain: MGSNSLSMIKVRLQNLFDNDEVALLKITCYTDKLIHLTNALAKAVIHTIKLNGIVFVHVITSSDICPNNNIVVKSNFTTMPVLQNGGYIWEMMELTHCSQPNGLLDDNCEIKFSKKLSDSTMTNYMNQLSELLGFDLNP
notes: nonstructural protein 1 (NS1) of respiratory syncytial virus; Immobilised by amine coupling on the CM5 chip; source: E. coli BL21, purified
**Q.** B1 was tested. Which Kd did it give?
**A.** 31.2 nM

**Q.** What about the kon of the same binder?
**A.** 25400 M⁻¹ s⁻¹
